The values below come from patent US20080138349A1.

Experiment [1] addresses FcγRIIIA 158F (CD16A F158), soluble monomer (human) (UniProt P08637). Nature of the experiment: binding to human FcRs; method not given.
Experiment [2] deals with FcγRIIB (CD32B), soluble dimeric Fc fusion (human) (UniProt P31994). Kind of experiment: binding to human FcRs; method not given.
For experiment [3], the target named is FcγRIIA 131H (CD32A H131), soluble dimeric Fc fusion (human) (UniProt P12318). Kind of experiment: binding to human FcRs; method not given.
Experiment [4] deals with FcγRIIIA 158V (CD16A V158), soluble monomer (human) (UniProt P08637). Kind of experiment: binding to human FcRs; method not given.
In experiment [5] the target is FcγRIIIA 158F (CD16A F158), soluble monomer (human) (UniProt P08637). Nature of the experiment: Biacore SPR.
Experiment [6] deals with FcγRIIB (CD32B), soluble dimeric Fc fusion (human) (UniProt P31994). Kind of experiment: Biacore SPR.
In experiment [7] the target is FcγRIIIA 158V (CD16A V158), soluble monomer (human) (UniProt P08637). Kind of experiment: Biacore SPR.
Experiment [8] has as its target FcγRIIIA 158F (CD16A F158), soluble monomer (human) (UniProt P08637). Nature of the experiment: Biacore SPR; value on CD16A over value on CD32B.
Experiment [9] deals with FcγRIIIA 158V (CD16A V158), soluble monomer (human) (UniProt P08637). Nature of the experiment: Biacore SPR; value on CD16A over value on CD32B.
For experiment [10], the target named is FcγRIIA 131H (CD32A H131), soluble dimeric Fc fusion (human) (UniProt P12318). Nature of the experiment: method not given.
For experiment [11], the target named is FcγRIIIA 158V (CD16A V158), soluble monomer (human) (UniProt P08637). Kind of experiment: method not given.

Chain of FcγRIIB (CD32B), soluble dimeric Fc fusion (human) (P31994 43-217): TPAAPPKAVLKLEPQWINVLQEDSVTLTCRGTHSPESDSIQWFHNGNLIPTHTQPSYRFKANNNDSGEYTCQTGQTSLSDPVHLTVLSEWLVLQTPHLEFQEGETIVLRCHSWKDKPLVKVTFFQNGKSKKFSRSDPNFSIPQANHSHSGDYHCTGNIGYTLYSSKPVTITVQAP
Chain of FcγRIIIA 158F (CD16A F158), soluble monomer (human) (P08637 17-208): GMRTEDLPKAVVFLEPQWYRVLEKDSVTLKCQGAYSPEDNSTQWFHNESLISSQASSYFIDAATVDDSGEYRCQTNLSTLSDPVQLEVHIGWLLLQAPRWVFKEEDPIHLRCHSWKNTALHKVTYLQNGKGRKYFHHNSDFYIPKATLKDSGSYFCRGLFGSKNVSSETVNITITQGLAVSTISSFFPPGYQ
Chain of FcγRIIIA 158V (CD16A V158), soluble monomer (human) (P08637 17-208 F176V): as the sequence (P08637 17-208) above, with F160V counted along it
Chain of FcγRIIA 131H (CD32A H131), soluble dimeric Fc fusion (human) (P12318 34-217): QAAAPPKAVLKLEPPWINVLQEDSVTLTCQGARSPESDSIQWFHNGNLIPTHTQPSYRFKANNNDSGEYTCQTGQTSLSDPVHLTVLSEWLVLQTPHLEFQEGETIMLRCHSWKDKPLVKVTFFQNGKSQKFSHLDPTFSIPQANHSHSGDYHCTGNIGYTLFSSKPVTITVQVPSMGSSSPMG

For “Control immunoglobulin with variant Fc region E333A K334A S298A (AAA) (antibody)”, the fold change relative to wild-type affinity in experiment [1] was 0.1 fold; in [2], -2.5 fold; in experiment [3], -3.3 fold; in [4], 0.6 fold.
“Control immunoglobulin with variant Fc region S239D I332E A330L (XmAb) (antibody)”: the fold change relative to wild-type affinity in [1] amounted to 8.1 fold; in experiment [2], 0.74 fold; in [3], 0 fold; in [4], 13.9 fold.
The like results for “Immunoglobulin with variant Fc region F243L R292P P396L (antibody)” were, in that order, 2.4 fold, -1.6 fold, 0.4 fold and 5.3 fold.
Regarding “Immunoglobulin with variant Fc region F243L R292P Y300L (antibody)”, the fold change relative to wild-type affinity in [1] was 3.6 fold; in [2] it was -0.7 fold; in experiment [3], 0 fold; in experiment [4], 6.4 fold. The Koff WT/Koff mutant in experiment [5] came to 2.3; in experiment [6], 0.32; in [7] it was 6.69. In addition, the Ratio of Affinities CD16A F158/CD32B in experiment [8] amounted to 7.19. Also, in experiment [9], the Ratio of Affinities CD16A V158/CD32B was found to be 20.9.
“Immunoglobulin with variant Fc region G316D R416G D270E P396L (antibody)”: the results for the Koff WT/Koff mutant in [5], in experiment [6] and in experiment [7] were 0.94, 1.07 and 1.22, respectively. In addition, the Ratio of Affinities CD16A F158/CD32B in experiment [8] amounted to 0.88. For the same substance, the Ratio of Affinities CD16A V158/CD32B in [9] is 1.14.
With “Immunoglobulin with variant Fc region K392T P396L (antibody)”, the Koff WT/Koff mutant stood at 1.81 in experiment [5], 2.35 in [6] and 1.49 in experiment [7]. In addition, the Ratio of Affinities CD16A F158/CD32B in experiment [8] was found to be 0.77. For the same substance, the Ratio of Affinities CD16A V158/CD32B in experiment [9] came to 0.63.
As for “Immunoglobulin with variant Fc region K392T P396L D270E (antibody)”, the values for the Koff WT/Koff mutant in [5], in [6] and in experiment [7] were 2.28, 0.79 and 1.81, respectively. Moreover, the Ratio of Affinities CD16A F158/CD32B in [8] was determined as 2.89. In experiment [9], the Ratio of Affinities CD16A V158/CD32B came to 2.29.
In the case of “Immunoglobulin with variant Fc region K392T P396L D270E F243L (antibody)”, the Koff WT/Koff mutant was found to be 2.44 in experiment [5], 0.44 in [6] and 3.16 in experiment [7]. Further, the Ratio of Affinities CD16A F158/CD32B in experiment [8] was found to be 5.55. The Ratio of Affinities CD16A V158/CD32B in [9] came out at 7.18.
As for “Immunoglobulin with variant Fc region L235Q, F243L, R292P, Y300L (antibody)”, the binding relative to wt (wt = 1) is 0.2 in [10] and 1.8 in [11].
Consider “Immunoglobulin with variant Fc region P247L N421K D270E (antibody)”, for which the Koff WT/Koff mutant was determined as 2.46 in experiment [5], 0.58 in [6] and 1.89 in [7]. Besides, the Ratio of Affinities CD16A F158/CD32B in experiment [8] worked out at 4.24. Moreover, the Ratio of Affinities CD16A V158/CD32B in experiment [9] came out at 3.26.
With “Immunoglobulin with variant Fc region P247L N421K D270E F243L (antibody)”, the Koff WT/Koff mutant in experiment [5] was determined as 3.45; in experiment [6], 0.32; in experiment [7], 2.3. Moreover, the Ratio of Affinities CD16A F158/CD32B in [8] came out at 10.8. The Ratio of Affinities CD16A V158/CD32B in experiment [9] was found to be 7.19.
Consider “Immunoglobulin with variant Fc region P247L N421K F243L (antibody)”, for which the Koff WT/Koff mutant in experiment [5] turned out to be 1.71; in experiment [6], 0.17; in experiment [7], 1.89. For the same substance, in experiment [8], the Ratio of Affinities CD16A F158/CD32B was 10.1. Further, the Ratio of Affinities CD16A V158/CD32B in [9] came out at 11.1.
Turning to “Immunoglobulin with variant Fc region P396L (antibody)”, the fold change relative to wild-type affinity in experiment [1] turned out to be 0.7 fold; in [2] it was 1.6 fold; in experiment [3], 0.6 fold; in [4], 0.3 fold. For the same substance, the Koff WT/Koff mutant in experiment [5] is 1.73; in [6], 2.58; in experiment [7], 1.27. Further, the Ratio of Affinities CD16A F158/CD32B in experiment [8] came out at 0.67. Also, the Ratio of Affinities CD16A V158/CD32B in [9] worked out at 0.49.
As to “Immunoglobulin with variant Fc region P396L D270E (antibody)”, the Koff WT/Koff mutant in experiment [5] stood at 1.65; in experiment [6], 0.89; in experiment [7] it was 1.38. Also, the Ratio of Affinities CD16A F158/CD32B in [8] stood at 1.85. In experiment [9], the Ratio of Affinities CD16A V158/CD32B worked out at 1.55.
Regarding “Immunoglobulin with variant Fc region P396L F243L (antibody)”, the Koff WT/Koff mutant amounted to 1.6 in experiment [5], 2.22 in [6] and 1.49 in [7]. Also, the Ratio of Affinities CD16A F158/CD32B in experiment [8] was determined as 0.72. The Ratio of Affinities CD16A V158/CD32B in [9] turned out to be 0.67.
As to “Immunoglobulin with variant Fc region Q419H P396L (antibody)”, the Koff WT/Koff mutant in experiment [5] came out at 1.19; in [6] it was 1.33; in experiment [7], 1.19. The Ratio of Affinities CD16A F158/CD32B in experiment [8] was found to be 0.89. For the same substance, the Ratio of Affinities CD16A V158/CD32B in [9] came out at 0.89.
For “Immunoglobulin with variant Fc region Q419H P396L D270E F243L (antibody)”, the Koff WT/Koff mutant in experiment [5] was 1.15; in experiment [6], 0.26; in [7], 1.46. Besides, the Ratio of Affinities CD16A F158/CD32B in experiment [8] came to 4.42. Also, the Ratio of Affinities CD16A V158/CD32B in experiment [9] was found to be 5.62.
For “Immunoglobulin with variant Fc region R255L P396L (antibody)”, the Koff WT/Koff mutant in [5] was 1.39; in experiment [6] it was 2.22; in experiment [7], 1.09. Further, in [8], the Ratio of Affinities CD16A F158/CD32B turned out to be 0.63. Further, the Ratio of Affinities CD16A V158/CD32B in experiment [9] stood at 0.49.
The like results for “Immunoglobulin with variant Fc region R255L P396L D270E (antibody)” were, in that order, 1.65, 0.87, 1.34, 1.9 and 1.54.
In the same order, the values of “Immunoglobulin with variant Fc region R255L P396L D270E F243L (antibody)” are 1.64, 0.38, 1.75, 4.32 and 4.61.
Take “Immunoglobulin with variant Fc region R292P (antibody)”: the fold change relative to wild-type affinity was 0.6 fold in [1], -2.7 fold in experiment [2] and -0.5 fold in experiment [3].
As for “Immunoglobulin with variant Fc region R292P F243L P396L Y300L (antibody)”, the Koff WT/Koff mutant came to 5.62 in experiment [5], 1.07 in experiment [6] and 10.1 in experiment [7]. Further, the Ratio of Affinities CD16A F158/CD32B in [8] turned out to be 5.25. For the same substance, in experiment [9], the Ratio of Affinities CD16A V158/CD32B is 9.4.
With “Immunoglobulin with variant Fc region R292P V284M K370N (antibody)”, the values for the Koff WT/Koff mutant in [5], in experiment [6] and in experiment [7] were 1.37, 0.37 and 1.14, respectively. For the same substance, in experiment [8], the Ratio of Affinities CD16A F158/CD32B came out at 3.7. Further, in experiment [9], the Ratio of Affinities CD16A V158/CD32B came to 3.1.
Regarding “Immunoglobulin with variant Fc region R292P V305I F243L P396L (antibody)”, the fold change relative to wild-type affinity in experiment [2] is -1.6 fold; in [3] it was -0.3 fold; in experiment [4], -3 fold.
Regarding “Immunoglobulin with variant Fc region R292P V305I P396L (antibody)”, the Koff WT/Koff mutant in experiment [5] was found to be 1.9; in experiment [6], 0.92; in [7], 1.85. In experiment [8], the Ratio of Affinities CD16A F158/CD32B was determined as 2.07. Besides, in [9], the Ratio of Affinities CD16A V158/CD32B worked out at 2.01.
Take “Immunoglobulin with variant Fc region Y300L (antibody)”: the fold change relative to wild-type affinity in experiment [1] amounted to 0.2 fold; in [2], 0.2 fold; in [3] it was 1.9 fold; in experiment [4], 0 fold. The values for the Koff WT/Koff mutant in experiment [6] and in experiment [7] were 1.18 and 1.01, respectively. The Ratio of Affinities CD16A F158/CD32B in [8] was determined as 0.99.
